This series in a line: label from the status in PepcDB records.
In the case of “MGATVPQRKALVLKASRILLSEKPLPERLQAFLEALLEGPFPIRSGKLYLRKGEGLRLVAQLGGEAGGEEVALSLEGGGRALGRLSLRLAPAASLAPEDRLALEEAAGILALALLRERAERAERVLRRAGECATQAAGEGDLLHKVCALLVEEGYALAWVGEARPTGEVVPREAAGAVGYLEGIRVRWDEAPEGQGPTGRALRSGRPQVLRSVEEDPRYAPWRERAQVFGFASSAAFPLRVEGRVWGSLNVYAPEEDAFDEEEVRLLEDLARLIGHALDRLRALERLRFLAYHDPLTGLPNRRRLEEDFRLLRGRWALCRLDLVDLYEVNEAYGREAGDALLARTSRRLQALLPREGRLYRLEGGEFLALLPGGAKEAEAFGQALGEALEAPLDLGEGRAFRVRVRAGVALFPDDANTLSELLRRADQALREAKKAGKRWTFYSLGLGEAVRERREVLAGLEKALAEGELRLYGQPIVDLATGRPAGVEVLLRWARGEEVVPASRFIPVAEEAGLIPELDLYVLRALAQMTTALPLHVNLSPQTLLDERLLLGLAPLKGRNLRLELTEHALASPGAEARLKELSCMGFPVVLDDFGQGYASLRLLVGLPFSMAKVDRGFVGGIGLDPKAEAALKAVLALSRELEIALVAEGVEREDQWAWLRSVGYSLGQGYLWGRPAPLEEVLYP”, the protein production result is given as “failed”.

Regarding “MGCCYSLSSTVDPVQDHTTDASSEPRNGGGEDPPLTKFSFSALKTATNHFSPENIVSDQTSDVVFKGRLQNGGFVAIKRFNNMAWSDPKLFLEEAQRVGKLRHKRLVNLIGYCCDGDKRFLVADFMANDTLAKRLFQRKYQTMDWSIRLRVAYFVAEALDYCNTAGFASYNNLSAYKVLFDEDGDACLSCFGLMKEINNDQITTGSVNPENVIYRFGTVLVNLLSGKQIPPSHAPEMIHRKNVFKLMDPYLKGKFSIDEANVVYKLASQCLKYEGQESPNTKEIVATLETLQTRTEAPSYEVVEMTNQEKDASSSSNLSPLGEACLRMDLASIHSILVLAGYDDDKDIIELSFEEWIQEVKELQDVRRNGDRAFVEQDFKTAIACYSQFVEERSLVYPSVYARRSLSYLFCDEPEKALLDGMHAQGVFPDWPTAFYLQSVALAKLDMNTDSADTLKEAALLEVKK”, the protein production result is “failed”. Turning to “MGDPAPARSLDDIDLSALRDPAGIFELVEVVGNGTYGQVYKGRHVKTGQLAAIKVMDVTEDEEEEIKQEINMLKKYSHHRNIATYYGAFIKKSPPGNDDQLWLVMEFCGAGSVTDLVKNTKGNALKEDCIAYICREILRGLAHLHAHKVIHRDIKGQNVLLTENAEVKLVDFGVSAQLDRTVGRRNTFIGTPYWMAPEVIACDENPDATYDYRSDIWSLGITAIEMAEGAPPLCDMHPMRALFLIPRNPPPRLKSKKWSKKFIDFIDTCLIKTYLSRPPTEQLLKFPFIRDQPTERQVRIQLKDHIDRSRKKRGEKEETEYEYSGSEEEDDSHGEEGEPSSIMNVPGESTLRREFLRLQQENKSNSEALKQQQQLQQQQQRDPEAHIKHLLHQRQRRIEEQKEERRRVEEQQRREREQRKLQEKEQQRRLEDMQALRREEERRQAEREQEYKRKQLEEQRQSERLQRQLQQEHAYLKSLQQQQQQQQLQKQQQQQLLPGDRKPLYHYGRGMNPADKPAWAREVEERTRMNKQQNSPLAKSKPGSTGPEPPIPQASPGPPGPLSQTPPMQRPVEPQEGPHKSLVAHRVPLKPYAAPVPRSQSLQDQPTRNLAAFPASHDPDPAIPAPTATPSARGAVIRQNSDPTSEGPGPSPNPPAWVRPDNEAPPKVPQRTSSIATALNTSGAGGSRPAQAVRARPRSNSAWQIYLQRRAERGTPKPPGPPAQPPGPPNASSNPDLRRSDPGWERSDSVLPASHGHLPQAGSLERNRVGVSSKPDSSPVLSPGNKAKPDDHRSRPGRPADFVLLKERTLDEAPRPPKKAMDYSSSSEEVESSEDDEEEGEGGPAEGSRDTPGGRSDGDTDSVSTMVVHDVEEITGTQPPYGGGTMVVQRTPEEERNLLHADSNGYTNLPDVVQPSHSPTENSKGQSPPSKDGSGDYQSRGLVKAPGKSSFTMFVDLGIYQPGGSGDSIPITALVGGEGTRLDQLQYDVRKGSVVNVNPTNTRAHSETPEIRKYKKRFNSEILCAALWGVNLLVGTENGLMLLDRSGQGKVYGLIGRRRFQQMDVLEGLNLLITISGKRNKLRVYYLSWLRNKILHNDPEVEKKQGWTTVGDMEGCGHYRVVKYERIKFLVIALKSSVEVYAWAPKPYHKFMAFKSFADLPHRPLLVDLTVEEGQRLKVIYGSSAGFHAVDVDSGNSYDIYIPVHIQSQITPHAIIFLPNTDGMEMLLCYEDEGVYVNTYGRIIKDVVLQWGEMPTSVAYICSNQIMGWGEKAIEIRSVETGHLDGVFMHKRAQRLKFLCERNDKVFFASVRSGGSSQVYFMTLNRNCIMNW”, the protein production result is reported as “failed”.

The values are drawn from a protein production outcome set (Wang et al. 2014).
